{
  "source": "paper doi:10.1101/2020.12.18.423418",
  "target": "SARS-CoV-2 S1 protein containing a C-terminal His-tag (Acro; S1N-C52H3) (SARS-CoV-2) (UniProt P0DTC2)",
  "experiment": "flow cytometry on cells",
  "data": [
    {"substance": "recombinant fragment of human surfactant protein D (rfhSP-D) (from UniProt P35247 199-375) (domain or fragment)", "values": [
      {"measurement": "percent reduction of S1 binding to ACE2 on cells at 10 μg/ml rfhSP-D", "value": 35, "unit": "%"}
    ]}
  ]
}
